What was measured:
[1] = Differential scanning fluorimetry (protein thermal shift; TM1 Fc, TM2 Fab); assay type: physicochemical; details: melting temperature of the Fab domain; Table 11
Method: A protein thermal shift assay was carried out by mixing the protein to be assayed with an environmentally sensitive dye (SYPRO Orange, Life Technologies Cat #S-6650) in a phosphate buffered solution (PBS), and monitoring the fluorescence of the mixture in real time as it underwent controlled thermal denaturation. Protein solutions between 0.2-2 mg/mL were mixed at a 1-1 volumetric ratio with a 1-500 PBS-diluted solution of SYPRO Orange (SYPRO Orange stock dye is 5000× in DMSO). 10 μL aliquots of the protein-dye mixture were dispensed in quadruplicate in a 384-well microplate (Bio-Rad Cat #MSP-3852), and the plate was sealed with an optically clear sealing film (Bio-Rad Cat #MSB-1001) and placed in a 384-well plate real-time thermocycler (Bio-Rad CFX384 Real Time System). The protein-dye mixture was heated from 25° C. to 95° C., at increments of 0.1° C. per cycle (˜1.5° C. per minute), allowing 3 seconds of equilibration at each temperature before taking a fluorescence measurement. At the end of the experiment, the transition melting temperatures (TM1 and TM2) were determined using the Bio-Rad CFX manager software. TM1 represents the melting temperature of the Fc domain. TM2 represents the melting temperature of the Fab domain.
For the thermal stability of an antibody, the first melting peak (Tm1) coincides with the unfolding of the CH2 domain (FC stability), while the second melting peak (Tm2) occurs upon unfolding of the Fab domain.

human ROR1-Fz = biological target: T1, human ROR1-Fz (Homo sapiens, UniProt Q01973); test: Biacore off-rate and kinetic analysis, ROR1 frizzled domain; assay type: binding; details: Table 11 (SP34 light chain)
T1 construct: Frizzled (Fz, residues 165-305); HIS6 (C); purchased Acro Biosystems; host or cells: HEK293
Method: Anti-Fc polyclonal antibodies were immobilized onto a CM5 chip (GE Life Sciences) using amine coupling chemistry (from Amine Coupling Kit, GE Life Sciences). The immobilization steps were carried out at a flow rate of 25 μL/min in 1×HBS-EP+ buffer (GE Life Sciences; 10× Stock diluted before use). The sensor surfaces were activated for 7 min with a mixture of NHS (0.05 M) and EDC (0.2 M). The Anti-Fc antibodies were injected over all 4 flow cells at a concentration of 25 ug/ml in 10 mM sodium acetate, pH 4.5, for 7 min. Ethanolamine (1 M, pH 8.5) was injected for 7 min to block any remaining activated groups. An average of 12,000 response units (RU) of capture antibody was immobilized on each flow cell.
Off-rate and kinetic binding experiments were performed at 25° C. using 1×HBS-EP+ buffer. Test and control antibodies were injected over the anti-Fc surface at concentrations of 5-10 μg/mL for 12 seconds at a flow rate of 10 μL/min on flow cells 2, 3 and 4, followed by a buffer wash for 30 seconds at the same flow rate. Kinetic characterization of antibody samples was carried out with a range of antigen concentrations from 1-100 nM and 1 injection of 0 nM antigen (for example, 100, 50, 25, 6.25, 1.56 and 0 nM). After capturing ligand (antibody) on the anti-Fc surface, the analyte (hROR1, Fz or Kr domains, Acro Biosystems, Delaware) was bound for 180 seconds, followed by a 600 second dissociation phase at a flow rate of 50 μL/min. Between each ligand capture and analyte binding cycle, regeneration was carried out using 2 injections of 10 mM Glycine pH 2.0 for 30 seconds at 30 μL/min, followed by a 30 second buffer wash step.
The data was fit with the Biacore T200 Evaluation software, using a 1-1 Langmuir binding model. KD (affinity, nM) was determined as a ratio of the kinetic rate constants calculated from the fits of the association and dissociation phases.
For anti-CD3-LC-containing IgGs that had detectable ROR1-binding in ELISA (1944-A07 and 1987-C05 variants), those antibodies were further tested for binding by surface plasmon resonance (SPR). Binding kinetics were assessed to the ROR1-frizzled domain (hROR1-Fz) or the ROR1-extracellular domain (hROR1) for 1944-A07 and 1987-C05 variants, respectively. Briefly, anti-ROR1 antibodies were captured via anti-human Fc polyclonal antibodies immobilized to a CM5 chip, and ROR1 recombinant proteins were flowed across the surface to assess binding kinetics. hROR1 or hROR1-Fz domain (Acro Biosystems, Delaware) binding was tested at 100, 50, 25, 6.25, 1.5625 nM. The data was fit with the Biacore™ T200 Evaluation software, using a 1-1 Langmuir binding model. KD (affinity, nM) was determined as a ratio of the kinetic rate constants calculated from the fits of the association and dissociation phases.

[2] = biological target: T2, HCT116 cells overexpressing human ROR1 (HCT116-hRor1) (Homo sapiens, UniProt Q01973); test: FACS cell binding, affinity maturation leads; details: Table 11 (SP34 light chain)
T2 construct: expressed in transfected cells; host or cells: HCT116
Description: Ntera-2, MDA-MB-231, MCF7, HCT116 and Mino cells were obtained from ATCC. HCT116-hRor1-D02 clone was generated by transfecting HCT116 cells with a plasmid containing human Ror1 cDNA sequence and selected for highest stable expression of hRor1 on the cell surface. MDA-MB-231, MCF7, HCT116 and HCT116-Ror1 cell were maintained in Ham's F-12 high glucose DMEM (50-50) (Cellgro-Mediatech; Manassas, VA) supplemented with 10% heat-inactivated fetal bovine serum (Hyclone; Thermo Scientific; Waltham, MA), 1% Penicillin/Streptomycin (Cellgro-Mediatech; Manassas, VA) and 2 mmol/L-glutamax (Life Technology; Carlsbad, CA). Mino cells were maintained in RPMI-1640 medium (Cellgro-Mediatech; Manassas, VA) supplemented with 20% heat-inactivated fetal bovine serum (Hyclone; Thermo Scientific; Waltham, MA), 1% Penicillin/Streptomycin (Cellgro-Mediatech; Manassas, VA) and 2 mmol/L-glutamax (Life Technology; Carlsbad, CA).
Variants with expression levels >250 nM were tested in a fluorescence-activated cell sorting (FACS) cell-binding assay. […]
A mix of ROR1 positive and negative cells was prepared as follows. […] Cells were then washed 2× with FACS buffer and fixed for 10 minutes in 200 μl PBS with 2% PFA prior to fluorescence detection. […] Mean Fluorescence Intensity of ROR1 antibody binding was analyzed using FlowJo® software (Tree Star, Inc.).

B1: SRP2196-B07 (antibody, V domains shown)
VH: EVQLVESGGGLVQPGGSLRLSCAASGFNITGYHIHWVRQAPGEGLEWVGYISPNSGATYYADSVEGRFTISADTSKNTAYLQMHSLRAEDTAVYYCTRDSRRYVRGWDYWGQGTLVTVSS
VL: QAVVTQESALTTSPGETVTLTCRSSTGAVTTSNYANWVQEKPDHLFTGLIGGTNKRAPGVPARFSGSLIGDKAALTITGAQTEDEAIYFCALWYSNLWVFGGGTKLTVL
TM2 [1]: 69 °C | Biacore human ROR1-Fz ka (human ROR1-Fz): 185000 M⁻¹ s⁻¹ | Biacore human ROR1-Fz kd (human ROR1-Fz): 0.000269 s⁻¹ | HCT 116-hROR1 Binding Bmax [2]: 15139 MFI

Reference: patent publication US12226490B2, “Anti-ROR1 antibody conjugates, compositions comprising anti ROR1 antibody conjugates, and methods of making and using anti-ROR1 antibody conjugates preliminary class” (Sutro Biopharma, Inc., priority 2022, dated 2025)
